Results as given in article PMC10709618, “Ag nanorod@PEI-Ag nanohybrid as an excellent signal label for sensitive and rapid detection of serum HER2”.

Molecular target: HER2 (GST-tagged, human) (human, UniProt P04626 676-1255)
Assay: electrochemical aptasensor (cyclic voltammetry); Ag NR@PEI-Ag nanohybrid label cast after HER2; LOD 10 pg (not a Kd); Aptamer 0.25 uM loaded on Au electrode; HER2 cast and dried under infrared lamp, PBS wash; CV in 0.1 M PBS pH 7, 100 mV/s; temperature not stated
Details: protein: commercial; tags: GST

B1: HER2 aptamer (ssDNA)
DNA: GGGCCGTCGAACACGAGCATGGTGCGTGGACCTAGGATGACCTGAGTACTGTCC
modifications: 5'-thiol (SH)
Does B1 bind?
Result: binds
